Source: article PMC12348683

Target: T1, KwaB (O55) (Escherichia coli O55, UniProt P0DW46 1-315)
T1 sequence: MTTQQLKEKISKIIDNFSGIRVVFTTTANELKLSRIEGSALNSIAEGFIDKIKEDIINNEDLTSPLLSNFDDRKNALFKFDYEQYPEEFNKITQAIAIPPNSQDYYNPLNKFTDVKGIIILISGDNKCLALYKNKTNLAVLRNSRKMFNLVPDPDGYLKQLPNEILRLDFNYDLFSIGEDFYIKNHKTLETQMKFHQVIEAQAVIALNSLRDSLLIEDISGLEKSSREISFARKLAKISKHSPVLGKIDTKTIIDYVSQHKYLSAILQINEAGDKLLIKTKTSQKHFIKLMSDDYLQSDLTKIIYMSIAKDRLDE
Assay: EMSA

B1: 72-bp dsDNA (dsDNA)
DNA 1: TGGTTTTTATATGTTTTGTTATGTATTGTTTATTTTCCCTTTAATTTTAGGATATGAAAACAAGAATTTATC
DNA 2: GATAAATTCTTGTTTTCATATCCTAAAATTAAAGGGAAAATAAACAATACATAACAAAACATATAAAAACCA
  binding result: binds
